Data published in publication PMC7655957 (2020).

T1: WT_(ZIP+)/WT_(ZIP−), BICD2_(1–98) heterodimer with C-terminal ZIP+/ZIP− leucine zipper (mouse (cDNA, methods); called human in …, UniProt Q921C5-1 1-98; Q921C5-1 1-98)
T1 chain 1: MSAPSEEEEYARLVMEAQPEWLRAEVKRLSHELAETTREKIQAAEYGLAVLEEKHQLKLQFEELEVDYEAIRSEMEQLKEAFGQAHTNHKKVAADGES
T1 chain 2: T1 chain 1

B1: FIP3_(206–270), EF-hand pair of Rab11 family-interacting protein 3 (domain or fragment)
chain: RLRAVFDALDGDGDGFVRIEDFIQFATVYGAEQVKDLTKYLDPSGLGVISFEDFYQGITAIRNGD
B2: NIN_(1–87), first EF-hand pair of Ninein (domain or fragment)
chain: MDEVEQDQHEARLKELFDSFDTTGTGSLGQEELTDLCHMLSLEEVAPVLQQTLLQDNLLGRVHFDQFKEALILILSRTLSNEEHFQE

Experiments:
[1] = molecular target: T1, WT_(ZIP+)/WT_(ZIP−), BICD2_(1–98) …; assay: ITC; one-site binding model (rejected, poor fit)
[2] = molecular target: MBP-LIC1FL, full-length dynein light intermediate chain-1 (human, UniProt Q9Y6G9 1-523); assay: ITC; 5 mM EGTA, 30 °C
Sequence of MBP-LIC1FL, full-length dynein light intermediate chain-1 (Q9Y6G9 whole entry): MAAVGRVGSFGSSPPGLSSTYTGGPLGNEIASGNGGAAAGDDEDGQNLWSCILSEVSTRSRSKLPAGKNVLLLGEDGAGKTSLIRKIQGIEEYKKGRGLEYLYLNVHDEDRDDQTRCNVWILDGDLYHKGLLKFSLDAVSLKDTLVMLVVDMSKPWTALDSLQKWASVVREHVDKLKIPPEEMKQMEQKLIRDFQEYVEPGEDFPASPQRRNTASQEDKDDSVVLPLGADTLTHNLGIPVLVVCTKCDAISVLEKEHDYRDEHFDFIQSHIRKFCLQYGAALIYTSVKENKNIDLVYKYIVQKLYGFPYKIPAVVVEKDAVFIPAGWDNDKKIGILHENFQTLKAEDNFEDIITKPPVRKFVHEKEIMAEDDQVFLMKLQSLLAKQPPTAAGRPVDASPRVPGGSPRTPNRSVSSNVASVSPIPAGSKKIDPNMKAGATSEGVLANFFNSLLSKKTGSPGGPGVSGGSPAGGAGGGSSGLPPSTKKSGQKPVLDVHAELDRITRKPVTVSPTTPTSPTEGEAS

| Kd [1] [µM] | Kd [2] [µM] | Binder |
| --- | --- | --- |
| 3 | – | NMKAGATSEGVLANFFNSLLSKKTGS [LIC1_(433–458), amphipathic helix of the dynein light intermediate chain-1] |
| – | 3.1 | B1 |
| – | 15.5 | B2 |
